The values that follow come from article PMC6491591 (2019).

The chains are these.
B1: Gonadotropin Regulated Testicular Helicase (GRTH/DDX25), wild type, V5-His tagged [human] / Protein Kinase A catalytic subunit alpha (PKA-Cα), overexpressed [not stated] (parent complex)
chain 1: MASLLWGGDAGAAESERLNSHFSNLSQPRKNLWGIKSTAVRNIDGSINNINEDDEEDVVDLAANSLLNKLIHQSLVESSHRVEVLQKDPSSPLYSVKTFEELRLKEELLKGIYAMGFNRPSKIQEMALPMMLAHPPQNLIAQSQSGTGKTAAFVLAMLSRVNALELFPQCLCLAPTYELALQTGRVVEQMGKFCVDVQVMYAIRGNRIPRGTDITKQIIIGTPGTVLDWCFKLKLIDLTKIRVFVLDEADVMIDTQGFSDHSIRIQRALPSECQMLLFSATFEDSVWHFAERIIPDPNVIKLRKEELTLNNIRQYYVLCEHRKDKYQALCNIYGSITIGQAIIFCQTRRNAKWLTVEMIQDGHQVSLLSGELTVEQRASIIQRFRDGKEKVLITTNVCARGIDVKQVTIVVNFDLPVKQGEEPDYETYLHRIGRTGRFGKKGLAFNMIEVDELPSLMKIQDHFNSSIKQLNAEDMDEIEKIDY
chain 2: not shown

The variants in the first test derive from B1. Kind of test: co-immunoprecipitation (IP: V5 antibody), western blot band intensity quantified with ImageJ; COS-1 cells co-transfected with GRTH-V5 and PKA-Cα; read off a plot.
As to chain 1 E165A, the response was about 1.2 Arbitrary units.
On the same count and under the same terms, under chain 1 T239A stands about 1.3 Arbitrary units; under chain 1 E165A, chain 1 K240A, about 1 Arbitrary units.

The variants in a further test derive from B1. The test can be described thus: co-immunoprecipitation (IP: PKA-Cα antibody), western blot band intensity quantified with ImageJ; COS-1 cells co-transfected with GRTH-V5 and PKA-Cα; read off a plot.
For the variant chain 1 E165A, the response is about 1.2 Arbitrary units.
In the case of chain 1 T239A, the response was about 1.2 Arbitrary units.
On the same count and under the same terms, the value for chain 1 E165A, chain 1 K240A was about 1.2 Arbitrary units.
